Measurements taken from the supplement of paper PMC10065799, “High-throughput profiling of sequence recognition by tyrosine kinases and SH2 domains using bacterial peptide display” (eLife, 2023).
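Further: 11-residue human phosphosite peptides and single-mutation variants displayed on the E. coli surface, counted by deep sequencing, each peptide's frequency after selection divided by its frequency in the unselected input library; frequency after pTyr selection over input frequency; kinase dosed for 20-30% of maximal phosphorylation in three min.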

Each sequence was assayed against FGFR1 (UniProt P11362) (assay: phosphorylation enrichment, bacterial display (enrichment ratio); higher = better substrate or ligand; peptides without Tyr show the background).
Sequence of FGFR1 (P11362 whole entry, looked up): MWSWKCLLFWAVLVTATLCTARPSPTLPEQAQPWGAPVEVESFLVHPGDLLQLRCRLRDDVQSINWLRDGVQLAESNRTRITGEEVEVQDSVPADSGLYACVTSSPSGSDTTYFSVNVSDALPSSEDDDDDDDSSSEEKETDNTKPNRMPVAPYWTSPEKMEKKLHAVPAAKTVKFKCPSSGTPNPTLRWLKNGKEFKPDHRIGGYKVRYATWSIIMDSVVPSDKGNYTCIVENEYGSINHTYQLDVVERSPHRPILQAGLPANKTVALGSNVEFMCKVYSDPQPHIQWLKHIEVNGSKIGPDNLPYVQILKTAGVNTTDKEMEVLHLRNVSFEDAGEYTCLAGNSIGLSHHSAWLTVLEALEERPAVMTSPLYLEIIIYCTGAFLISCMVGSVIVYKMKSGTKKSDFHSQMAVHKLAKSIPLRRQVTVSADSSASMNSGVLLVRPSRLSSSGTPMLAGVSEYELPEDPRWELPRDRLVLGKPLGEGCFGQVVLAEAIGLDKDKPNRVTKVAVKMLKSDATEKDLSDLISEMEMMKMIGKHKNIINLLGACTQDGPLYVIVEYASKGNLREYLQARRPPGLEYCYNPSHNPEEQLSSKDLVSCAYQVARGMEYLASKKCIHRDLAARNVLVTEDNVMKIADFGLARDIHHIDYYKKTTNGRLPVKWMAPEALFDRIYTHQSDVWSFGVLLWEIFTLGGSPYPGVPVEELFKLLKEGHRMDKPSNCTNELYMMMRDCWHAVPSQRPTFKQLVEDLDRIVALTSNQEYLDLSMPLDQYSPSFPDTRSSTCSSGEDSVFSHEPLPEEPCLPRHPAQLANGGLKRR
ERPGVHTNVVE [F11_Y608_Y608H] gave a phosphorylation enrichment of 0.46.
NMSRIYSTTKV [ACE_Y151_A154T] was tested, and the phosphorylation enrichment was 0.341.
Work on QDRTYYERVRT [SPEN_Y633_S635R] yielded a phosphorylation enrichment of 0.749.
KMMGRYEMFAR [UPB1_Y362_T359M_YF] was tested, and the phosphorylation enrichment was 0.363.
Work on IMVFVYSRVFQ [ADRB2_Y219] yielded a phosphorylation enrichment of 0.445.
Work on LIDGFYRLTED [JAK2_Y373_A377E_YF] yielded a phosphorylation enrichment of 0.537.
Sequence KMKGDYFCFLA [YWHAG_Y130_R132C_YF] has a phosphorylation enrichment of 11.9.
RNIQQCNSFVS [PRKAR1A_Y373_Y373C] gave a phosphorylation enrichment of 0.501.
GLIPAYHRFIM [NMNAT1_Y64_V67F] gave a phosphorylation enrichment of 0.553.
For CPFNLYAEQLS [HGD_Y40_YF], the phosphorylation enrichment was 0.577.
With RISPEYKQNEI [GJB1_Y243_L239I] the phosphorylation enrichment was 0.866.
Work on GDPTEYYITAI [IGSF22_Y501_S503I] yielded a phosphorylation enrichment of 2.91.
RLGVTYEQALA [MAP2_Y996_G991R] gave a phosphorylation enrichment of 0.721.
YLQEIYNSNNQ [FGG_Y140] was tested, and the phosphorylation enrichment was 0.436.
LNRAGYCDALE [MTUS1_Y151_C148R] was tested, and the phosphorylation enrichment was 0.686.
TLQIMYGCDVG [HLA-A_Y123_I119L] gave a phosphorylation enrichment of 0.619.
EPNSRYTYKLE [USH2A_Y3745] gave a phosphorylation enrichment of 0.438.
Work on EERNTYVNTTL [TEK_Y1102_K1100N] yielded a phosphorylation enrichment of 0.515.
Sequence KLADMYGGGED [CDH1_Y876] has a phosphorylation enrichment of 0.561.
With WTAHSYRMGSA [ARHGEF7_Y785_T790A] the phosphorylation enrichment was 0.556.
PGPPGYCDSSH [COL12A1_Y3043_Q3048H] was tested, and the phosphorylation enrichment was 0.512.
SIKDKYVTAVY [KCNH2_Y611_L615V] showed a phosphorylation enrichment of 0.498.
TKVTFYKQPMF [GBA_Y451_D448V] showed a phosphorylation enrichment of 0.461.
AHDGEYGAEAL [HBA1_Y25_A22D] was tested, and the phosphorylation enrichment was 0.513.
Sequence AELKLYSGAQT [ZAP70_Y178_R175L] has a phosphorylation enrichment of 0.39.
Sequence YECKWYIPLTD [BCR_Y756_D752E] has a phosphorylation enrichment of 0.812.
For WFPANYVKLLN [ITSN1_Y1132_S1137N], the phosphorylation enrichment was 0.599.
With GGGMIYPLDLF the phosphorylation enrichment was 0.503.
For EIVHRYVELLD [AP1S3_Y87], the phosphorylation enrichment was 0.41.
For ISKKIYDPIHD [CTNNA3_Y614_T616P], the phosphorylation enrichment was 0.436.
In the case of NIKKEYTKMVQ [PMS2_Y181_A182T], the phosphorylation enrichment is reported as 0.808.
Work on LSQDVYEEDSF [RET_Y900_R897Q_YF] yielded a phosphorylation enrichment of 0.991.
With TIMTDYNPNFC [ALK_Y1092_YF] the phosphorylation enrichment was 0.533.

What follows are sequences tested against Jak2 (UniProt O60674) in the same assay as above.
Sequence of Jak2 (O60674 whole entry, looked up): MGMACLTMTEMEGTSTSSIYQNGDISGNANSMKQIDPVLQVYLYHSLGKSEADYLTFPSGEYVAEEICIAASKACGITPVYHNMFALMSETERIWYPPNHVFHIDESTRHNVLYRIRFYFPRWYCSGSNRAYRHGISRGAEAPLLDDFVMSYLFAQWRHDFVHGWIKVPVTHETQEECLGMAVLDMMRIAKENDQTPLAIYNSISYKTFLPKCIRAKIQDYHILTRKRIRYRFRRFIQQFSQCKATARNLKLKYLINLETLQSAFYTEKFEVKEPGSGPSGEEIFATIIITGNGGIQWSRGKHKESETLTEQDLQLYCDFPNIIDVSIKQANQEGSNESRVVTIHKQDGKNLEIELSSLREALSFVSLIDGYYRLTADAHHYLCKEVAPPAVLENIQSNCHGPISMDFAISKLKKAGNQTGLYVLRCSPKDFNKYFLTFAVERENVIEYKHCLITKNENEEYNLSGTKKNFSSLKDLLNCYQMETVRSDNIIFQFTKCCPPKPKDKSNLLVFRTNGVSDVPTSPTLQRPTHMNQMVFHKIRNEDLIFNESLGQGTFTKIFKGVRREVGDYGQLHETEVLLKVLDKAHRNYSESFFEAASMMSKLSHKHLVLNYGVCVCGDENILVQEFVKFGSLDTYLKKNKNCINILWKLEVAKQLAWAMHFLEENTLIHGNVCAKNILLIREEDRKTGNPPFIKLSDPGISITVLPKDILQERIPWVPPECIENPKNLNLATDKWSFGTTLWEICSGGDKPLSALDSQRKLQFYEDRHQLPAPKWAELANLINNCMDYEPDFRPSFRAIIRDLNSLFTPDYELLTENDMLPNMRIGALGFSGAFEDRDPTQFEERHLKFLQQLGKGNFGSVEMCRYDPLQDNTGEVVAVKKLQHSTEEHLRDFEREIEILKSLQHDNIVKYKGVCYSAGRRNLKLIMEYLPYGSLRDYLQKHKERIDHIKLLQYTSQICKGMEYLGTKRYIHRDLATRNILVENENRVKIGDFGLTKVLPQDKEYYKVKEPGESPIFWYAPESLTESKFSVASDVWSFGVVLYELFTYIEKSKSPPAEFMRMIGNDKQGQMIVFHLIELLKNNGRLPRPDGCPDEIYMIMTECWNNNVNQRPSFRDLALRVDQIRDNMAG
With ERPGVHTNVVE [F11_Y608_Y608H] the phosphorylation enrichment was 0.777.
With NMSRIYSTTKV [ACE_Y151_A154T] the phosphorylation enrichment was 0.421.
QDRTYYERVRT [SPEN_Y633_S635R] gave a phosphorylation enrichment of 0.556.
For KMMGRYEMFAR [UPB1_Y362_T359M_YF], the phosphorylation enrichment was 0.453.
Work on IMVFVYSRVFQ [ADRB2_Y219] yielded a phosphorylation enrichment of 0.93.
LIDGFYRLTED [JAK2_Y373_A377E_YF] showed a phosphorylation enrichment of 1.11.
KMKGDYFCFLA [YWHAG_Y130_R132C_YF] showed a phosphorylation enrichment of 6.97.
RNIQQCNSFVS [PRKAR1A_Y373_Y373C] gave a phosphorylation enrichment of 1.4.
For GLIPAYHRFIM [NMNAT1_Y64_V67F], the phosphorylation enrichment was 1.31.
In the case of CPFNLYAEQLS [HGD_Y40_YF], the phosphorylation enrichment is reported as 0.935.
RISPEYKQNEI [GJB1_Y243_L239I] was tested, and the phosphorylation enrichment was 0.983.
Sequence GDPTEYYITAI [IGSF22_Y501_S503I] has a phosphorylation enrichment of 1.38.
RLGVTYEQALA [MAP2_Y996_G991R] gave a phosphorylation enrichment of 1.15.
Work on YLQEIYNSNNQ [FGG_Y140] yielded a phosphorylation enrichment of 0.998.
In the case of LNRAGYCDALE [MTUS1_Y151_C148R], the phosphorylation enrichment is reported as 1.
With TLQIMYGCDVG [HLA-A_Y123_I119L] the phosphorylation enrichment was 1.4.
EPNSRYTYKLE [USH2A_Y3745] gave a phosphorylation enrichment of 0.628.
EERNTYVNTTL [TEK_Y1102_K1100N] gave a phosphorylation enrichment of 0.551.
KLADMYGGGED [CDH1_Y876] was tested, and the phosphorylation enrichment was 0.732.
WTAHSYRMGSA [ARHGEF7_Y785_T790A] was tested, and the phosphorylation enrichment was 0.679.
PGPPGYCDSSH [COL12A1_Y3043_Q3048H] gave a phosphorylation enrichment of 1.16.
Work on SIKDKYVTAVY [KCNH2_Y611_L615V] yielded a phosphorylation enrichment of 0.585.
Sequence TKVTFYKQPMF [GBA_Y451_D448V] has a phosphorylation enrichment of 0.853.
Sequence AHDGEYGAEAL [HBA1_Y25_A22D] has a phosphorylation enrichment of 0.819.
In the case of AELKLYSGAQT [ZAP70_Y178_R175L], the phosphorylation enrichment is reported as 0.82.
Sequence YECKWYIPLTD [BCR_Y756_D752E] has a phosphorylation enrichment of 1.48.
WFPANYVKLLN [ITSN1_Y1132_S1137N] was tested, and the phosphorylation enrichment was 1.45.
For GGGMIYPLDLF, the phosphorylation enrichment was 0.941.
With EIVHRYVELLD [AP1S3_Y87] the phosphorylation enrichment was 0.922.
For ISKKIYDPIHD [CTNNA3_Y614_T616P], the phosphorylation enrichment was 0.516.
Sequence NIKKEYTKMVQ [PMS2_Y181_A182T] has a phosphorylation enrichment of 0.49.
With LSQDVYEEDSF [RET_Y900_R897Q_YF] the phosphorylation enrichment was 2.56.
TIMTDYNPNFC [ALK_Y1092_YF] gave a phosphorylation enrichment of 0.795.
